Reference: US8329186B2, “Treatment of inflammation using BST2 inhibitor” (Isu Abxis Co., Ltd, priority 2004, dated 2012)

What was measured:
interleukin-2 (IL-2) = assay: IL-2 expression in activated Jurkat cells (real-time RT-PCR); format: cell-based, human; conditions: 3-fold increased by Jurkat cell activation
Protocol: Intracellular expression levels of specific genes were analyzed by real-time quantitative RT-PCR using ABI Prism 7900HT (Applied Biosystems, Foster City, Calif.) and a SYBR-Green assay kit. Primers and probes used were designed using Primer Express software (Applied Biosystems).
10 ng of single-stranded cDNA was placed in a reaction tube and subjected to multiplex TaqMan PCR (50 μl) using the TaqMan Universal PCR Master Mix. The relative amount of target cDNA was calculated using the comparative cycle threshold (CT) method. PCR products were analyzed by agarose gel electrophoresis.
The relative levels of a specific gene A were expressed as a change compared to a control sample (untransfected cells). […] The above experiments were carried out to quantify the expression of the Bst2 gene and interleukin-2.
When Jurkat cells (5×10^5 cells/ml) were incubated with anti-CD3 monoclonal antibody (OKT3: 10 μg/ml, BD Pharmingen) at 4° C. for 20 min and then with anti-mouse immunoglobulin polyclonal antibody (25 μg/ml, Zymed) 37° C. for 1 hr, cell aggregation occurred, and the cells were activated and induced to produce interleukin-2 (IL-2) (FIGS. 10 and 11). […] IL-2 mRNA levels upon T cell activation were measured by real-time RT-PCR (Example 3). […]

U937 cells = assay: Direct binding of U937 cells to Bst2 decoy-coated plates; design: species or system human; conditions: Bst2 decoy-coated wells vs BSA
Protocol: Flat-bottomed 96-well plates were coated with Bst2 decoy with sodium bicarbonate (100 mM, pH 9.5) for 2 hrs at 37° C. The plates were washed with PBS (pH 7.4) and incubated with 1% bovine serum albumin (BSA) at 25° C. After a rinse with PBS (pH 7.4) containing 1 mM CaCl2 and 0.5 mM MgCl2, U937 cells (1×10^6/ml) were added to each dBst2-coated well. After 2 hrs of incubation at 37° C., unbound cells were removed by two gentle washes with RPMI1640 media (Gibco-BRL) and bound cells were fixed with 2% paraformaldehyde for 20 minutes, washed, and stained with 0.5% crystal violet. After 30 minutes at 25° C., the plates were washed with PBS and bound cells were counted.

[1] = test system: OVA-induced atopic dermatitis; assay: OVA-induced atopic dermatitis model in mice; format: in vivo, BALB/c mice
Protocol: An experimental model of atopic dermatitis based on immunity against ovalbumin (OVA) was utilized to test Bst2 decoy for efficacy in atopic dermatitis. BALB/c mice were immunized at the beginning of weeks 1, 2, and 3 with intraperitoneal injections of OVA/ALUM. During week 4, an OVA-soaked patch was applied to the shaved backs of the animals. The patches were removed and 5 daily doses of Bst2 decoy was administered to the animal by intravenous injections of 10 mg/kg during week 5. OVA-soaked patches were applied again to the animals over week 6 and the animals were sacrificed for evaluation at the beginning of week 7 (FIG. 43).
Serum was prepared from blood sample collected from the sacrificed animals. OVA-specific IgE levels were determined by ELISA assays in which OVA was coated on the plate, OVA-specific immunoglobulin present in the serum samples allowed to blind, and IgE levels ascertained utilizing anti-IgE specific antibodies.

CLP sepsis = assay: Cecal ligation and puncture (CLP) sepsis model: survival; format: in vivo, rat
From the text: (§1) A rat model of sepsis was induced through cecal ligation and puncture (CLP) as described previously (Wichterman K A, Baue A E, Chaudry I H: Sepsis and septic shock-a review of laboratory models and a proposal. J Surg Res 29:189-201, 1980). An incision was made along the midline of the abdomen on an anesthetized animal. The cecum was exteriorized, ligated and punctured with a stainless steel needle. An appropriate amount of fecal matter was then extruded. The gauge of the needle, number of punctures and amount of fecal matter extruded are all factors in determining the severity of sepsis and mortality. […] The incision was sutured and appropriate post-operative care was administered. Sham-operated animals were subjected to similar laparotomy and intestinal manipulation, however, the cecum was neither ligated nor punctured. Immediately or 6 hours after the CLP procedure, animals were given intravenous injection of vehicle or a Bst2 decoy.
Mortality of animals was monitored for up to 14 days after the procedure. […] 3, 10, and 30 mg/kg doses were administered immediately following the CLP procedure and daily survival monitored over the course of 14 days.

TNF-alpha, IL-6, HMGB-1 = assay: CLP sepsis model: plasma inflammatory proteins (ELISA); format: in vivo, rat
From the text: as §1
Blood samples were collected at 1, 3, 6, 18 and 24 hours post-CLP. Plasma levels of representative inflammatory response proteins were measured using ELISA kits; TNF-alpha(BD Biosciences, San Diego, Calif.) and IL-6(BD Biosciences, San Diego, Calif.) at 1, 3, and 6 hours, HMGB-1 (Shino-Test Corp., Japan) at 18 and 24 hours. Typically, after CLP in rodents, TNF-alpha spikes at 3 hours and IL-6 spikes at 6 hours.

B1: Bst2 decoy: soluble Bst2 protein fragment having the amino acid sequence of SEQ ID NO:1; extracellular region of human Bst2, six-histidine tag (protein)
chain: NSEACRDGLRAVMECRNVTHLLQQELTEAQKGFQDVEAQAATCNHTVMALMASLDAEKAQGQKKVEELEGEITTLNHKLQDASAEVERLRRENQVLSVRIADKKYYPSSQDHHHHHH
expression of IL-2 (interleukin-2 (IL-2)): decreased again to the basal level | attachment of U937 cells to coated wells (U937 cells): attached | formation of lesions after OVA-soaked patch ([1]; 10 mg/kg intravenous, 5 daily doses during week 5, end of week 6): little if any formation of lesions | serum OVA-specific IgE levels ([1]; ELISA): substantial reduction | inflammation in H&E stained skin sections ([1]; to a level similar to the negative control group): marked decrease in inflammation | 14 day survival rate (CLP sepsis; 3 mg/kg intravenous immediately following CLP): 37.5% | 14 day survival rate (CLP sepsis; 10 mg/kg intravenous immediately following CLP): 80% | 14 day survival rate (CLP sepsis; 30 mg/kg intravenous immediately following CLP): 75% | 14-day survival rate (CLP sepsis; administration 6 hours post-CLP): 70% | plasma IL-6 spike (TNF-alpha, IL-6, HMGB-1; 1, 3 and 6 hours post-CLP): substantially suppressed | plasma TNF-alpha response (TNF-alpha, IL-6, HMGB-1; 1, 3 and 6 hours post-CLP): virtually absent | plasma HMGB-1 (TNF-alpha, IL-6, HMGB-1; 18 and 24 hours post-CLP): reducing both the amount and rate of increase
